Source: the RNAGym collection of RNA variant scans (doi:10.1073/pnas.2313332121)

B1: TPR t1 (parent)
chain: GACCAAUCUGCCCUCAGAGCUCGAGAACAUCUUCGGAUGCAGAGGAGGCAGGCUUCGGUGGCGCGAUAGCGCCAACGUCCUCAACCUCCAAUGCAUCCCACCACAUGAUGAUGCCUGAAGAGCCUUGGUUUUUUG

Variants of: B1
Experiment: polymerase ribozyme fitness, log enrichment relative to wild type (log ratio); higher = more active; in vitro selection for triplet polymerase activity
In short: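 A single round of triplicate in vitro selection, including frozen incubation at −7 °C, was applied to PCR-built, transcribed mutant libraries of each subunit of a heterodimeric triplet polymerase ribozyme. Illumina sequencing of input and output libraries retained genotypes with ≥10 input reads and ≥1 read per output. Fitness is the base-2 logarithm of genotype enrichment divided by wild-type enrichment, from inverse-variance-weighted replicate averages.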

Variant	polymerase ribozyme fitness (log ratio)
GACCUAUCUGCCCUCAGAGCUCGAGAACAUCUUCGGAUGCAGAGGAGGGAGGAUUCGGUGGCGCGAUAGCUCCAACGUCCUCAACCUCCAAUGCAUCCCACCACAUGAUGAUGCCUGAAGAGCCUUGGUUUUUUG	-0.914
GACCUAUCUGCCCUCAGAGCUCGAGAACAUCUUCGGAUGCAGAGGAGGCAGGCUUCGGUGGCGUGAUAGCGCCAACGUCCUCAACCUCCAAUGCAUCCCACCACAUGAUGAUGCCUAAAGAGCCUUGGUUUUUUG	-2.55
GACCUAUCUGCCCUAAGAGCUCGAGAACAUCUUCGGAUGCAGAGGAGGCAGGCUUCGGUGGAGCGAUAGCGCCAACGUCCUCAACCUCCAAUGCAUCCCACCACAUGAUGAUGCCUGAAGAACCUUGGUUUUUUG	-4.9
GACCUAUCUGCCCUCAGAGCUGGAGAACAUCUUCGGAUGCAGAGGAGGCAGGCUUCGGUGGCGCGAUAGCGCCAACGUCCUCAACCUCCAAUGCAUCCCACCACAUGAUGAUGCCUGAAGAGCCUUGGUUUUUUG	-3.43
GACCUAUCUGCCCUCAGAGCUCGAGAACAUCUUCGGAUGCAGAGGAGGCAGGCUUGGGUGGCGCGAUAGCGCCAACGUCCUCAACCUCCAAUGCAUCCCACCACAUGAUGAUGCCUGAAGAGCCUUGGUUUUUUG	-1.04
GACCUAUCUGCCCUCAGAGCUCGAGAACAUCUUCGGAUGCAGAGGAGGCAGGCUUUGGUGGCGCGAUAGCGCCAACGUCCUCAACCUCCAAUGCAUCCCACCACAUGAUGAUGCCUGAAGAGCCUUGGUUUUUUG	-0.648
GACCUAUCUGCCCUCAGAGCUCGAGAACAUCUUCGGAUGCAGAGGAGGCAGGCUUCGGUGGGGCGAUAGCGCCAACGUCCUCAACCUCCGAUGCAUCCCACCACAUGAUGAUGCCUGAAGAGUCUUGGUUUUUUG	-0.143
GACCUAUCUGCCCUCAGAGCUCGAGAACAUCUUCGGAUGCAGAGGAGGCAGGCUUCGGUGGGGCGAUAGCGCCAACGUCCUCAACCUCCAAUGCAUCCCUCCACAUGAUGAUGCCUGAAUAGCCUUGGUUUUUUG	-3.08
GACCUAUCUGCUCUCAGAGCACGAGAACAUCUUCGGAUGCAGAGGAGGCAGGCUUCGGUGGCGCGAUAGCGCCAACGUCCUCAGCCUCCAAUGCAUCCCACCACAUGAUGAUGCCUGAAGAGCCUUGGUUUUUUG	-2.37
GACCUAUCUGCCCUUAGAGCUCGAGAACAUCUUCGGAUGCAGAGGAGACAGGCUUCGGUGGCGCGAUAGAGCCAACGUCCUCAACCUCCAAUGCAUCCCACCACAUGAUGAUGCCUGAAGAGCCUUGGUUUUUUG	-3.43
GACCUAUCUGCCUUCAGAGCUCGAGAACAUCUUCGGAUGCAGAGGAAGCAGGCUUCGGUGGCUCGAUAGCGCCAACGUCCUCAACCUCCAUUGCAUCCCACCACAUGACGAUGCCUGAAGAGCCUUCGUUUUUUG	-6.28
GACCUAUCUGCCCUGAGAGCUCGAGAACAUCUUCGGAUGCAGGGGAGGCAGGCGUCGGUGGCGCGAUAGCGCCAACGUCCUCAACCUCCAAUGCAUCCCACCACAUGAUGAUGUCUGAAGAUCCUUGGUUUUUUG	-6.04
GACCUAUCUGCCCUCAGAGCUCGAGAAUAUCUUCGGAUGCAGAGGAGGCAGGCUUCGGUGGCGCGAUAACGCCAACGUCCUCAACCUCCAAUGCAUCCCACCACAUGAUGAUGCCUGAAGAGCUUUGGUUUUGUG	-4.96
GACCUAUCUGCCGUCAGAGCUCGAGAACAUCUUCGGAUGCAGAGGAGGCAGGCUUCGGUGGCACGAUAGCGCCAACGUCCUCAACCUCUAAAGCAUCCCACCACAUGAUGAUGCCUGAAAAGCCUUGGUUUUUUG	-5.85
GACCUAUCUGCCCUCAGAGAUCGAGAACAUCUACGGGUGCAGAGGAGGGAGACUUCGGUGGCGCGAUAGCGCCAACGACCUCAACCUCCAAUGCAUCCCACCACAUGAUGUUGCCUGAAGAGCCUUGGUUUUUUG	-5.53
GACCUAUCUGCCCUCAGAGCUCGAGAACAUCUUCGGAUGCAGAGGAGGCAGGCUUCGGUGGCGUGAUAGCGCCAACGUCCUCAAGUUCCAAUGCAUCCCACCACAUGAAGAUGCCUGAAGAGCGUUGGUUUUGUG	-6.39
GACCUAUCUGCCCUCAGAGCUCGAGAACAUCUUCGGAUGCAGAGGAGGCAGGCUUCGGUGGCGCGAUAGCGUCAACGUCCUCAACCUCCAAUGCAUCCCACCACAUGAUGAUGCCUGAAGAGCCUUGGUUUUUUG	-0.719
GACCUAUCUGCCCUCAGAGCUCGAGAACAUCUUCGGAUGCAGAGGAGGCAGGCUUCGGUGGCGCGAUAGCGUCAACGUCCCCAACCUCCAAUGCAUCCCACCACAUGAUGAUGCCUGAAGAGCCUUGGUUUUUUG	-0.617
GACCUAUCUGCCCUCAGAGCUCGAGAAUAUCUUCGGAUGCAGAGGAGGCAGGCUUCGGUGGGGCGAUAGCGCCAACGUCCUCAACCUCCAAUGCAUCCCACCACAUGAUGAUGCCUGAAGAGCCUUGGUUUUUUG	-5.59
GACCUAUCUGCCCUCAGAGCUCGAGAACAUCUUCGGAUGCAGAGGAGGCAGGCUUCGGUGGUGCGAUAGCGUCAACGUCCUCAACCUCCAAUGCAUCCCACCACAUGAUGAUGCCUGAAGAGCCUUGGUUUUUUG	-0.208
GACCUAUCUGCCCUCAGAGCUCGAGAAUAUCUUCGGAUGCAGAGGAGGCAGGCUUCGGUGGCGCGAUAGCGACAACGCCCUCAACCUCCAAUGCAUCCCACCACAUGAUGAUGCCUGAAGAGCCUUGGUUUUUUG	-1.78

Variant	polymerase ribozyme fitness (log ratio)
GACCUAUCUGCCCUCAGAGAUCGAGAACAUCUUCGGAUGCAGAGGAGGCAGGCUUCGGUGGCGCGAUAUCGCCAACGUCCUCAACCUCCAAUGCAUCGCACCACAUGAUGAUGCCUGAAGAGGCUUGGUUUUUUG	-2.75
GACCUAUCUGCCCUCAGAGCUCGAGAACAUCUUCGGAUGCAGAGGAGGCAGGUUUCGGUGGCACGAUAGCGCCAACGUGCUCAACCUCCAAUGCAUCCCACCACAUGAUGAUGCCUGAAGAGCCUUCGUUUUUUG	-2.9
GACCUAUCUGCCCUCAGAGCUCGAGAACAUCUUCGGAUGCAGAGGAGGCAGGCUUCGGUGGCGGGAUAGCGCCAACGUCCUCAACCUCCAAUGCAUCCCACCACAUGAUGAUGCCUGAAGAGCUUUGGUUUUUUG	-6.6
GACCUAUCUGCCGUCAGAGCUCGAGAACAUCUUCGGAUGCAGACGAGGCAGGCUUCGGUGGCGCGAUAGCGCCAACGUCCUCAACCUCCAAUGCAUCCCACCACAUGAUGAUGCCUGAAGAGCCUUGGUUUUUUG	-2.74
GACCUAUCUGCCCUCAGAGCUCGAGAACAUCUUCGGAUGCAGAGGAGGCAGGCUUCGGUGGCGCGAUAGCGUCAACGUCCUCAACCUCCAAUGCAUCCCACCACAUGAUGAUUCCUGAAUAGCCUUGGUCUUUUG	-4.48
GACCUAUCUGCCCUCAGAGCUAGAGAACAUCUUCGGAUGCAGAGGAGGCAGGCUUCGGUUGCGCGAUAGCGCCAACGUCCUCAACCUCCAAUGCAUCCCACCACAUGAUGAUGCCUGAAGAGCCUUGGUUUUUUG	-6.59
GACCUAUCUGCCCUCAGAGCUUGAGAACAUCUUCGGAUGCAGAGGAGGCUGGCGUCGGUGGCGCGAUAGCGCCAACGUCCUCAACCUCCAAUGCAUCCCACCACAUGAUGAUGCCUGAAGAGCCUUGGUUUUUUG	-6.42
GACCUAUCUGCCCUCAGAGCUCGAGAACAUCUUCGGAUGCAGAGGAGGGAGGCUUCGGUGGCGCGAUAGAGCCAACGUCCUCAACCUCCAAUGCAUCCCACCACAUGAUGAUGCCUGAAGAGCCUUGGUUUUUUG	-3.06
GACCUAUCUGCCCUCAGAGCUCGAGAACAUCUUCGGAUGCAGAGGAGGGAGGCUUCGGUGGCGCGAUAGGGCCAACGUCCUCAACCUCCAAUGCAUCCCACCACAUGAUGAUGCCUGAAGAGCCUUGGUUUUUUG	-4.62
GACCUAUCUGCCGUCAGAGCUCGAGAACAUCUUCGGAUGCAGAGGAGGCAGGCUUCGGUGGCGCGAUAGCGCCAACGUCCUCAACCUCUAAAGCAUCCCACCACAUGAUGAUGCCUGAAAAGCCUUGGUUUUUUG	-2.77
GACCUAUCUGCCCUCAGAGCUCGAGAACAUCUUCGGAUGUACAGGAGGCAGGCUUCGGUGGCGCGAUAGCGCCAACGUCCUCAACCUCCAAUGCAUCCCACCACAUGAUGAUGCCUGAAGAGCCUUGGUUUUUUG	-2.03
GACCUAUCUGCCCUCAGAGCUCGAGAACAUCUUCGGAUGUAGAGGAGGCAGGCUUCGGUGGCGCGAUAGCGCCAACGUCCUCAACCUACAAUGCAUCCCAACACAUGAUGAUGCCUGAAGUGCCUUGGUUUUUUG	0.119
GACCUAUCUGCCCUCAGAGCUCGAGAACAUCUUCGGAUGCAGAGGAGGCAGGCUUCGGUGGCGCGAUAGGGCCAACGUCCUCAACCUCCAAUGCAUCCCACCACAAGAUGAUGUCUGAAGAGCCUUGGUUUUUUG	-5.21
GACCUAUCUGCCCUCAGAGCUCGAGAACAUCUUCGGAUGCAGAGGAGGCAGGAUUCGGUGGCGCGAUAGCGCCAACGUCCUCAACCUACAAUGCAUCACACCACAUGAAGAUGCCUGAAGAGCCUUGGUUUUUUG	-5.9
GACCUAUCUGCCCUCAGAGCUCGAGAACAUCUUCGGAUGCAGAGGAGGCAGGAUUCGGUGGCGCGAUAGCGCCAACGUCCUCAACCUCCAAUGCAUCCCACCAUAUGAUGAUCCCUGAAGAGCCUUGGUUUUUUG	-1.6
GACCUAUCUGCCCUCAGAGCUCGAGAACAUCUUCGGAUGCAGAGGAGGCAGGCUUCGGUGGCGCGAUAGCGUCAACGUCCUCAACCUCCAAUGCAUCCCACCACAUGAUGAUGUCUGAAGAGCCUUGGUUUUUUG	-2.7
GACCUAUCUGCCCUCAGAGCUCGAGAAUAUCUUCGGUUGCAGAGGAGGCAGGCUUCGGUGGCGCGAUAGCGCCAACGUCCUCAACCUCCAAUGCAUCCCACCAUAUGAUGAUGCCUGAAGAGGCUUGGUUUUUUG	-3.39
GACCUAUCUGCCCUCAGAGCUCGAGAACAUCUUCGGAUGCAGAGGAGGCAGGCUUGGGUGGCGCGAUAGAGCCAACGUCCUCAACCUCCAAUGCAUCCCACCACAUGAUGAUGCCUGAAGAGCCUUGGUUUUUUG	-3.29
GACCUAUCUGCCCUCAGAGCUCGAGAACAUCUUCGGAUGCAGAGGAGGCAGGCUUCGGUGGCGCGAUAGCGGCAACGUCCUCAACCUCCAAUGCAUCCCACCACACGAUGAUGCCUGAAGAGCCUUGGUUUUUUG	-0.417
GACCUAUCUGCCCUCAGAGCUCGAGAACAUCUUCGGAUGCAGAGGAGGCAGGCUUCGGUGGUGCGAUAGCGCCAACGUCCUCAACCUCCAAUGCAUCCCACCACAUGAUGAUGCCUGAAGAGCCUUGGUUUUUUG	-0.31
GACCUAUCUGCCCUCAGAGCUCGAGAACAUCUUCGGAUGCAGAGGAGGUAGGCUUCGGUGGCGCGAUAGUGCCAACGUCCUCAACCUCCAAUGCAUCCCACCACAUGAUGAUGCCUGAAGAGCCUUGGUUUUUUG	-1.06
